Experimental data published in US20230295259A1 (Protagonist Therapeutics, Inc., priority 2020, published 2023).
Starred links: 1 amine or outer side, 2 acyl side, 3 side chain; linkers in the order of their positions; H or OH if unused. Positions of bridges follow the written chain, without caps; N, C: chain ends. Non-standard residues stand in square brackets, D forms with d. Groups on a side chain read outwards from the residue. *: point of attachment. Glu(OMe) = COC(=O)CC[C@H](N[*:1])C(=O)[*:2]; C18 diacid = O=C(O)CCCCCCCCCCCCCCCCC(=O)*; Dip = N[C@H](C(=O)O)C(c1ccccc1)c1ccccc1; Palmitoyl = CCCCCCCCCCCCCCCC(=O)*; β3hF = N[C@H](CC(=O)O)Cc1ccccc1; Cha = N[C@@H](CC1CCCCC1)C(=O)O; hLeu = CC(C)CC[C@H](N)C(=O)O; Isovaleryl = CC(C)CC(=O)*; Dap = NC[C@H](N)C(=O)O; AEEA = NCCOCCOCC(=O)O; Ahx = NCCCCCC(=O)O

B1: Seq. No. 526 (peptide)
peptide: XXTHXPCIXXXXC
modifications: [Isovaleric Acid]-[Glu(OMe)]-T-H-[Dpa]-P-C-I-[(D)Lys]-[bhPhe]-[Lys(DMG_N_2ae_Palm)]-[(D)Lys]-C-NH2
B2: Seq. No. 479 (peptide)
peptide: XETXXPCIXXXC
modifications: [Isovaleric Acid]-E-T-[3Quin]-[Dpa]-P-C-I-[Lys(1PEG2_1PEG2_Dap_C18_Diacid)]-[bhPhe]-[(D)Lys]-C-NH2
B3: Seq. No. 499 (peptide)
peptide: XXTXXPCIXXXC
modifications: [Isovaleric Acid]-[Glu(OMe)]-T-[4Pal]-[Dpa]-P-C-I-[Lys(1PEG2_1PEG2_Dap_C18_Diacid)]-[bhPhe]-[(D)Lys]-C-NH2
B4: Seq. No. 496 (peptide)
peptide: XXTXXPCIXXXC
modifications: [Isovaleric Acid]-[Glu(OMe)]-T-[4Pal]-[Dpa]-P-C-I-[Lys(1PEG2_1PEG2_Ahx_C18_Diacid)]-[bhPhe]-[(D)Lys]-C-NH2
B5: Seq. No. 541 (peptide)
peptide: XETHXPCIXXXXC
modifications: [Isovaleric Acid]-E-T-H-[Dpa]-P-C-I-[(D)Lys]-[bhPhe]-[N-MeLys(Ahx_Palm)]-[(D)Lys(Carnitine)]-C-NH2
B6: Seq. No. 527 (peptide)
peptide: XETHXPCIXXXXC
modifications: [Isovaleric Acid]-E-T-H-[Dpa]-P-C-I-[(D)Lys]-[bhPhe]-[Lys(Ahx_DMG_N_2ae_Palm)]-[(D)Lys]-C-NH2
B7: Seq. No. 522 (peptide)
peptide: XXTHXPCIXXXC
modifications: [Isovaleric Acid]-[Glu(OMe)]-T-H-[Dpa]-P-C-I-[Lys(1PEG2_1PEG2_Dap_C18_Diacid)]-[Igl]-[(D)Lys]-C-NH2
B8: Seq. No. 494 (peptide)
peptide: XXTHXPXIXXXXC
modifications: [Isovaleric Acid]-[Glu(OMe)]-T-H-[Dpa]-P-[(D)Cys]-I-[(D)Lys]-[bhPhe]-[Lys(PEG2_1PEG2_DMG_N_2ae_C18_Diacid)]-[(D)Lys]-C-NH2
B9: Seq. No. 497 (peptide)
peptide: XXTYXPCIXXXC
modifications: [Isovaleric Acid]-[Glu(OMe)]-T-Y-[Dpa]-P-C-I-[Lys(1PEG2_1PEG2_Ahx_C18_Diacid)]-[bhPhe]-[(D)Lys]-C-NH2
B10: Seq. No. 549 (peptide)
peptide: XEXHXPCIXXXXC
modifications: not fully specified; [Isovaleric Acid]-E-[Dap]-H-[Dpa]-P-C-I-[(D)Lys]-[bhPhe]-[Lys(Ahx_Palm)]-[(D)Lys]-C-NH2
B11: Seq. No. 520 (peptide)
peptide: XXTHXPCIXXXC
modifications: [Isovaleric Acid]-[Glu(OMe)]-T-H-[Dpa]-P-C-I-[Lys(PEG12_Dap_C18_Diacid)]-[bhPhe]-[(D)Lys]-C-NH2
B12: Seq. No. 530 (peptide)
peptide: XXTHXPCIXXXC
modifications: [Isovaleric Acid]-[Glu(OMe)]-T-H-[Dpa]-P-C-I-[Lys(PEG12_DMG_N_2ae_Palm)]-[bhPhe]-[(D)Lys]-C-NH2
B13: Seq. No. 495 (peptide)
peptide: XXTHXPXIXXXC
modifications: [Isovaleric Acid]-[Glu(OMe)]-T-H-[Dpa]-P-[(D)Cys]-I-[Lys(PEG2_1PEG2_DMG_N_2ae_C18_Diacid)]-[bhPhe]-[(D)Lys]-C-NH2
B14: Seq. No. 508 (peptide)
peptide: XXTHXPCIXXXC
modifications: [Isovaleric Acid]-[Glu(OMe)]-T-H-[Dpa]-P-C-I-[Lys(1PEG2_1PEG2_Dap_C18_Diacid)]-[Hph]-[(D)Lys]-C-NH2
B15: Seq. No. 551 (peptide)
peptide: XEXHXPCIXXXXC
modifications: not fully specified; [Isovaleric Acid]-E-[Lys(Acrylamide)]-H-[Dpa]-P-C-I-[(D)Lys]-[bhPhe]-[Lys(Ahx_Palm)]-[(D)Lys]-C-NH2
B16: Seq. No. 505 (peptide)
peptide: XXTHXPCIXXXC
modifications: [Isovaleric Acid]-[Glu(OMe)]-T-H-[Dpa]-P-C-I-[Lys(1PEG2_1PEG2_Dap_C18_Diacid)]-[bhPhe(4-Me)]-[(D)Lys]-C-NH2
B17: Seq. No. 533 (peptide)
peptide: XXTHXPCIXXXC
modifications: [Isovaleric Acid]-[IsoGlu]-T-H-[Dpa]-P-C-I-[Lys(1PEG2_1PEG2_Ahx_C18_Diacid)]-[bhPhe]-[(D)Lys(PEG11_OMe)]-C-NH2
B18: Seq. No. 477 (peptide)
peptide: XETYXPCIXXXC
modifications: [Isovaleric Acid]-E-T-Y-[Dpa]-P-C-I-[Lys(1PEG2_1PEG2_Dap_C18_Diacid)]-[bhPhe]-[(D)Lys]-C-NH2
B19: Seq. No. 542 (peptide)
peptide: XETHXPCIXXXC
modifications: [Isovaleric Acid]-E-T-H-[Dpa]-P-C-I-[N-MeLys(Ahx_Palm)]-[bhPhe]-[(D)Lys(Carnitine)]-C-NH2
B20: Seq. No. 498 (peptide)
peptide: XXTWXPCIXXXC
modifications: [sovaleric Acid]-[Glu(OMe)]-T-W-[Dpa]-P-C-I-[Lys(1PEG2_1PEG2_Ahx_C18_Diacid)]-[bhPhe]-[(D)Lys]-C-NH2
B21: Seq. No. 537 (peptide)
peptide: XXTHXPCIXXXC
modifications: [Isovaleric Acid]-[(D)Arg]-T-H-[Dpa]-P-C-I-[Lys(1PEG2_1PEG2_Dap_C18_Diacid)]-[bhPhe]-[(D)Lys]-C-NH2
B22: Seq. No. 532 (peptide)
peptide: XXTHXPCIXXXC
modifications: [Isovaleric Acid]-[Glu(OMe)]-T-H-[Dpa]-P-C-I-[Lys(Ahx_DMG_N_2ae_Palm)]-[bhPhe]-[(D)Lys]-C-NH2
B23: Seq. No. 519 (peptide)
peptide: XXTHXPCIXXXC
modifications: [Isovaleric Acid]-[Glu(OMe)]-T-H-[Dpa]-P-C-I-[Lys(PEG12_PEG12_Dap_C18_Diacid)]-[bhPhe]-[(D)Lys]-C-NH2

molecular target: T1, human ferroportin (SLC40A1) fused in frame with GFP, stably expressed in HEK293 cells (human, UniProt Q9NP59 1-571); test: cell-based or functional assay
T1 sequence (looked up): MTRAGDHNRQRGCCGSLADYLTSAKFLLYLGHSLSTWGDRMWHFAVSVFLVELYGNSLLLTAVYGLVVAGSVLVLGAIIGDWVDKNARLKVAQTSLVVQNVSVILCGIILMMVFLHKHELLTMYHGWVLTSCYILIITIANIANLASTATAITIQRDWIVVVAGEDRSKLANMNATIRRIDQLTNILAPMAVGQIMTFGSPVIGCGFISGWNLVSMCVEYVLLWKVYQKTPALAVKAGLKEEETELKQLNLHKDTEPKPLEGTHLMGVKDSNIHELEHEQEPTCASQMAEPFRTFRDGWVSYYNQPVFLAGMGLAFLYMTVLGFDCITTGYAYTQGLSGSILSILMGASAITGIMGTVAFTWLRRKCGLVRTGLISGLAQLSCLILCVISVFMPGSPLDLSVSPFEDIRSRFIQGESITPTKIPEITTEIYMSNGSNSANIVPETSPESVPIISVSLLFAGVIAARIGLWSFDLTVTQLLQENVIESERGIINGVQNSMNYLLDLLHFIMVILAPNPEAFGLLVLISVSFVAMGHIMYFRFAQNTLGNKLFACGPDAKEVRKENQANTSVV

Binder	IC50: FPN internalisation [nM]
B1	28.1
B2	475
Isovaleryl-[Glu(OMe)]TH[Dip]PCIK([AEEA-AEEA-Dap-C18 diacid])[hLeu][dK]C-NH2 (disulfide 6-11 (inferred)) [Seq. No. 509]	20.6
B3	14.3
B4	10.6
B5	26
B6	31
B7	19.2
B8	107
B9	35.3
B10	50.8
B11	19.9
B12	37.4
B13	14.9
B14	24.2
B15	90
B16	16.7
B17	203
B18	246
B19	9.02
B20	124
B21	33.8
Isovaleryl-[Glu(OMe)]TH[Dip]PC[Cha]K([AEEA-AEEA-Dap-C18 diacid])[β3hF][dK]C-NH2 (disulfide 6-11 (inferred)) [Seq. No. 511]	16.9
B22	7.14
Isovaleryl-[Dap]TH[Dip]PCI[dK][β3hF]K([Ahx-Palmitoyl])[dR]C-NH2 (disulfide 6-12 (inferred)) [Seq. No. 502]	55.7
B23	24.7
